Legend:
[1] = test system: Cdc25C-NLuc/CLuc-14-3-3ε LCI pair; experiment: LCI of Cdc25C/14-3-3ε interaction in HEK-293 cells; assay type: cell-based, human; conditions: UCN-01 1 μM, 6 hrs
Procedure: HEK-293 cells transfected with Cdc25C-NLuc/CLuc-14-3-3ε or mutant S216A Cdc25C-NLuc/CLuc-14-3-3ε were treated with vehicle alone or UCN-01 (1 μM) for 6 hrs prior to LCI. Data are expressed as percent of bioluminescence relative to untreated Cdc25C-NLuc/CLuc-14-3-3ε in cells and represent the mean±SEM of three independent experiments, n=4 each.
To replace the FRB with human Cdc25C or human p91 STAT1 (J. E. Darnell Jr., The Rockefeller University, 1230 York Avenue, NY, N.Y. 10021, USA.) in the NLuc fusion vector, open reading frames of these cDNAs were amplified by PCR using 5′ primers containing a BamHI site and Kozak consensus sequence upstream of the start site and 3′ primers which reconstituted the linker region up to the BsiWI site. FRB was replaced using the BamHI and BsiWI sites. FKBP was similarly replaced with 14-3-3ε or STAT1 using BsiWI at the 3′ end and EcoRV at the 5′ end.
Cells (1×10^4/well in 100 μl media) were transferred to 96-well black walled plates 16-24 hrs after transfection. At the times indicated, growth media was replaced with media containing appropriate drugs or vehicles. To image live cells, D-luciferin (10 μl of 1.5 mg/ml in PBS) was added to wells. Photon flux for each well was measured 8-10 min after addition of D-luciferin with an IVIS CCD camera (1 min exposure, f-stop=1, binning 8, FOV 15 cm). […]

[2] = test system: phosphorylation of Cdc25C-NLuc on S216; experiment: Western blot of phospho-S216 Cdc25C-NLuc in HEK-293 cells; assay type: cell-based, human; conditions: UCN-01 1 μM, 6 hrs
Procedure: Cells were left untreated or treated with UCN-01 (1 μM) for 6 hrs prior to lysis, processed for Western analysis and then probed with the antibodies indicated to visualize expression, phosphorylation, and the effect of UCN-01 on the LCI constructs.
Cells (3×10^6/10 cm dish) were transfected with the indicated plasmids (6 μg each). Media was removed 6 hrs prior to lysis and replaced with media containing UCN-01 at the concentrations indicated. Cells were washed with PBS and lysed by incubation for 30 min at 4° C. with 1 ml RIPA buffer containing protease inhibitors (50 mM tris-HCl, pH 7.4, 1% NP-40, 0.25% deoxycholic acid, 150 mM NaCl, 1 mM EDTA, 1 mM each PMSF, sodium orthovanadate, and NaF, 1 μg/ml each leupeptin, aprotinin, pepstatin). After centrifugation to remove insoluble material, protein concentration was determined by BCA (Pierce Biotechnology, Inc., Customer Service Department, P.O. Box 117, Rockford, Ill. 61105 U.S.A). The Bicinchoninic Acid (BCA) test to determine protein concentration is a highly sensitive alternate assay to the Lowry assay.
Proteins (200 μg) were separated by SDS-PAGE and analyzed using polyclonal primary antibodies against pGL3 luciferase (Promega US, 2800 Woods Hollow Road, Madison Wis. 53711, USA) or phospho-S216-Cdc25C (Santa Cruz Biotechnologies, 2145 Delaware Avenue, Santa Cruz, Calif. 95060, U.S.A.). […]

[3] = molecular target: FRB domain of human mTOR / FKBP-12 (FRB-NLuc/CLuc-FKBP LCI pair) (Homo sapiens, UniProt P42345+P62942); experiment: Luciferase complementation imaging (LCI) of rapamycin-induced FRB/FKBP association in live HEK-293 cells; assay type: cell-based; conditions: HEK293, read-out: EC90 of rapamycin; HEK-293 cells transfected with FRB-NLuc/CLuc-FKBP
Procedure: Data, expressed as mean photon flux±SEM of quadruplicate wells, are representative of three independent tests.
HEK-293 cells were cultured in Dulbecco's Modified Eagle Medium (DMEM), (Life Technologies, 2575 University Ave. W., St. Paul, Minn. 55114 USA) supplemented with 10% fetal calf serum (FCS), 1% glutamine, 0.1% P/S, 0.1% fungizone. Cells (3×10^6/10 cm dish or 1.5×10^5 per 35 mm dish) were transiently co-transfected with pairs of plasmids as indicated using FuGene-6 (Roche) according to the manufacturers directions.

[4] = test system: STAT1-NLuc/CLuc-STAT1 LCI pair (nuclear accumulation); experiment: Bioluminescence of nuclear extracts of cells expressing STAT1-NLuc/CLuc-STAT1; assay type: cell-based, human
Procedure: HEK-293 cells were transiently transfected with STAT1-NLuc/CLuc-STAT1, the Y701F STAT1 mutant LCI pair, or intact luciferase. […] To measure bioluminescence in extracts, an assay buffer including D-luciferin and ATP (Luciferase Assay Buffer, Promega, USA) was added to duplicate samples of each extract. Bars show the ratio +/−SEM of mean photon flux/μg protein for extracts of IFN-γ treated over untreated cells. […] Duplicate determinations are vertically arranged with independent extracts arrayed horizontally.
(§1) To confirm that phosphorylated STAT1 LCI pairs were biologically functional, the inventors measured the IFN-γ-inducible nuclear accumulation of bioluminescence activity. Cytoplasmic and nuclear extracts were prepared from untreated and IFN-γ-treated HEK-293 cells transiently co-transfected with the STAT1-NLuc/CLuc-STAT1 LCI pair, the Y701F mutant pair, or intact luciferase. […] Western blots of the cytoplasmic and nuclear extracts used in FIG. 16. confirmed purity of the extracts, neither fraction showing cross-contamination as assessed by the marker proteins β-tubulin (cytoplasm) and Topo II (nucleus), respectively (data not shown). Western blots also confirmed virtually identical expression levels of wild-type and Y701F mutant LCI pairs as well as appropriate phosphorylation of STAT1 proteins and reporters (data not shown).

[5] = test system: STAT1-NLuc/CLuc-STAT1 LCI pair; experiment: LCI of STAT1-NLuc/CLuc-STAT1 in intact transduced cells (HEK-293, 2ftgh, U3A); assay type: cell-based, human; conditions: any time or any dose
Procedure: Each transduced cell line was sorted by FACS for expression of appropriate fluorescence markers (EGFP and mRFP) to enrich for cells carrying the imaging constructs. These enriched populations were seeded in a 96-well format (10^4 cells/well), and left untreated or treated with […] (1000 U/ml for 30 min). Bars represent the mean +/−SEM (n=4) for a representative test. Note the y-axis log scale.
The STAT1-NLuc and CLuc-STAT1 open reading frames were cloned into lentiviral vectors (gift of J. Milbrandt, Washington University in St. Louis, One Brookings Drive, St. Louis, Mo. 63130, USA ) downstream of a CMV promoter and upstream of an IRES linked to EGFP (Clontech) or mRFP (R. Tsien, UCSD), respectively.
Cells (1×10^4/well in 100 μl media) were transferred to 96-well black walled plates 16-24 hrs after transfection. At the times indicated, growth media was replaced with media containing appropriate drugs or vehicles. To image live cells, D-luciferin (10 μl of 1.5 mg/ml in PBS) was added to wells. Photon flux for each well was measured 8-10 min after addition of D-luciferin with an IVIS CCD camera (1 min exposure, f-stop=1, binning 8, FOV 15 cm). Cell lyastes used for imaging were prepared using Reporter Lysis Buffer (Promega US, 2800 Woods Hollow Road, Madison Wis. 53711, USA) according to the manufacturers directions.

[6] = test system: Y701F mutant STAT1 LCI pair; experiment: Bioluminescence of nuclear extracts of cells expressing the Y701F mutant STAT1 LCI pair; assay type: cell-based, human; conditions: IFN-γ 20 min, 100 U/ml, HEK-293
Procedure: HEK-293 cells were transiently transfected with STAT1-NLuc/CLuc-STAT1, the Y701F STAT1 mutant LCI pair, or intact luciferase. Forty-eight hours after transfection, cells were left untreated or treated with IFN-γ (1000 U/ml for 20 min) (n=3 for each) and then extracts prepared. To measure bioluminescence in extracts, an assay buffer including D-luciferin and ATP (Luciferase Assay Buffer, Promega, USA) was added to duplicate samples of each extract. Bars show the ratio +/−SEM of mean photon flux/μg protein for extracts of IFN-γ treated over untreated cells. […] Duplicate determinations are vertically arranged with independent extracts arrayed horizontally.
as §1, with “Western blots also confirmed virtually identical expression levels of wild-type and Y701F mutant LCI pairs as well as appropriate phosphorylation of STAT1 proteins and reporters (data not shown).” left out

[7] = test system: STAT1-NLuc, CLuc-STAT1, endogenous p91 and p84 STAT1 phosphorylation; experiment: Western blot of Y701 phosphorylation of STAT1 reporters and endogenous STAT1 in HEK-293 cells; assay type: cell-based, human; conditions: IFN-γ 1000 U/ml, 30 min
Procedure: Cells were left untreated or treated with IFN-γ (1000 U/ml) for 30 min prior to lysis, processed for Western analysis and then probed with the antibodies indicated to visualize expression and IFN-γ-induced phosphorylation of STAT1-NLuc (grey arrows), CLuc-STAT1 (black arrows), and endogenous p91 and p84 STAT1 (unfilled arrows). Intact luciferase expression (hatched arrow) is also shown. Note that while STAT1-NLuc could not be visualized using the STAT1 antibody, the fusion could be visualized with both Luc and phospho-STAT1 antibodies.

Chain of FRB domain of human mTOR / FKBP-12 (FRB-NLuc/CLuc-FKBP LCI pair) (P42345 2024-2113): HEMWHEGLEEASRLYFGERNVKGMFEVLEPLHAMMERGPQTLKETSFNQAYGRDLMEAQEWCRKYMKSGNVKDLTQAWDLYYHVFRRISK
Chain of FRB domain of human mTOR / FKBP-12 (FRB-NLuc/CLuc-FKBP LCI pair) (P62942 2-108): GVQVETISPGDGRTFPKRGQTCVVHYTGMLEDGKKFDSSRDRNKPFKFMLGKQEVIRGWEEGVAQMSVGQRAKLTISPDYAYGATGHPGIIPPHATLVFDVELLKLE

Molecule: CN[C@@H]1C[C@H]2O[C@@](C)([C@@H]1OC)n1c3ccccc3c3c4c(c5c6ccccc6n2c5c31)C(=O)N[C@@H]4O [UCN-01]
- effect on bioluminescence of Cdc25C-NLuc/CLuc-14-3-3ε [1]: decreased bioluminescence
- effect on phosphorylation of Cdc25C-NLuc on S216 [2]: reduction in phosphorylation

Molecule: CO[C@H]1C[C@@H]2CC[C@@H](C)[C@@](O)(O2)C(=O)C(=O)N2CCCC[C@H]2C(=O)O[C@H]([C@H](C)C[C@@H]2CC[C@@H](O)[C@H](OC)C2)CC(=O)[C@H](C)/C=C(\C)[C@@H](O)[C@@H](OC)C(=O)[C@H](C)C[C@H](C)/C=C/C=C/C=C/1C [rapamycin]
- EC90 [3]: 80 nM

B1: IFN-γ: interferon-γ, activates JAK1-mediated phosphorylation of STAT1 on Y701 (protein, UniProt P01579 24-161, looked up)
Interferon gamma: QDPYVKEAENLKKYFNAGHSDVADNGTLFLGILKNWKEESDRKIMQSQIVSFYFKLFKNFKDDQSIQKSVETIKEDMNVKFFNSNKKKRDDFEKLTNYSVTDLNVQRKAIHELIQVMAELSPAAKTGKRKRSQMLFRG
- bioluminescence (photon flux/μg protein) in nuclear extracts of HEK-293 cells ([4]; IFN-γ 20 min): specifically increased
- increase in bioluminescence of nuclear extracts of U3A cells ([4]; IFN-γ 30 min, n=3): 6 fold
- effect on bioluminescence of co-transduced intact cells [5]: failed to change bioluminescence
- nuclear bioluminescence in extracts of cells with mutant STAT1 LCI pair [6]: No such IFN-γ-induced increase
- phosphorylation of STAT1-NLuc, CLuc-STAT1 and endogenous p91 and p84 STAT1 [7]: resulted in phosphorylation
